The text below walks through data of PMC11407402.

Several values for one entry are separate records, joined by “and”; a condition that tells them apart may be missing. Identical values can stand only once.

In the experiment the target is non-glycosylated recombinant FcγRIIIa, 158 V allele, immobilised in the TSKgel FcγR-IIIA-NPR column. The experiment is described as follows: affinity HPLC on immobilised receptor.

Regarding “anti-CD20 antibody (rituximab V regions), wild-type human IgG1”, the elution time is 14.4 min and 16.2 min and 17.9 min; the mean elution time was found to be 15.5 min.
